{"source": "patent US20260226161A1", "about": "(EXELIXIS, published 2026)", "binders": {"B1": {"name": "P12 × A11 (1 × 1 format) (bispecific antibody)", "heavy 1": "DIQMTQSPSSLSASVGDRVTITCRASQSVSSAVAWYQQKPGKAPKLLIYSASSLYSGVPSRFSGSRSGTDFTLTISSLQPEDFATYYCQQFMLEPITFGQGTKVEIKGQPREPQVCTLPPSRDELTKNQVSLTCLVRGFYPSDIAVEWESNGQPENNYKTTPPVLDSDGSFFLYSKLTVDKSRWQQGNVFSCSVMHEALHNHYTQKSLSLSPGKDKTHTCPPCPAPEAAGGPSVFLFPPKPKDTLMISRTPEVTCVVVDVSHEDPEVKFNWYVDGVEVHNAKTKPREEQYNSTYRVVSVLTVLHQDWLNGKEYKCKVSNKALKAPIEKTISKAKGQPREPQVYTLPPSREEMTKNQVSLSCAVKGFYPSDIAVEWESNGQPENNYKTTPPVLDSDGSFFLVSKLTVDKSRWQQGNVFSCSVMHEALHNHYTQKSLSLSPGK", "light 1": "EVQLVESGGGLVQPGGSLRLSCAASGFTFSSYYIHWVRQAPGKGLEWVATINSRGGFTLYADSVKGRFTISADTSKNTAYLQMNSLRAEDTAVYYCARGYTLTPVLDYWGQGTLVTVSSAQPREPQVYTLPPCRDWLTKNQVSLTCLVKGFYPSDIAVEWESNGQPENNYKTTPPVLDSDGSFFLYSKLTVDKSRWQQGNVFSCSVMHEALHNHYTQKSLSLSPGK", "heavy 2": "not shown", "light 2": "EVQLVESGGGLVQPGGSLRLSCAASGFTFSWYYIHWVRQAPGKGLEWVAVIDPISSYTYYADSVKGRFTISADTSKNTAYLQMNSLRAEDTAVYYCARGFDRAMDYWGQGTLVTVSSASTKGPSVFPLAPSSKSTSGGTAALGCLVKDYFPEPVTVSWNSGALTSGVHTFPAVLQSSGLYSLSSVVTVPSSSLGTQTYICNVNHKPSNTKVDKKVEPKSC", "notes": "One PD-L1 site, one NKG2A site; also called P12×A11, sFc; P12×A11 (sFc)"}, "B2": {"name": "Antibody Clone A42 (antibody, human IgG1, kappa, V domains shown)", "VH": "EVQLVESGGGLVQPGGSLRLSCAASGFTFSWYYIHWVRQAPGKGLEWVAVIDPISSYTYYADSVKGRFTISADTSKNTAYLQMNSLRAEDTAVYYCARGFDRAMDYWGQGTLVTVSS", "VL": "DIQMTQSPSSLSASVGDRVTITCRASQSVSSAVAWYQQKPGKAPKLLIYSASSLYSGVPSRFSGSRSGTDFTLTISSLQPEDFATYYCQQYYSSPYTFGQGTKVEIKR"}}, "key": {"[1]": {"target": "T1, cynomolgus NKG2A/CD94 (soluble antigen of the equilibrium assay) (cynomolgus, UniProt Q68VD2 94-233; Q68VD4 32-179, Biotinylated in the Octet assays of Example 2; state in the SPR equilibrium assay not seen.)", "T1 construct": "also called Cyno NKG2A/CD94; copies: 1 + 1", "T1 sequence (NKG2A, as listed by the source limits assumed, chain 1 of 2)": "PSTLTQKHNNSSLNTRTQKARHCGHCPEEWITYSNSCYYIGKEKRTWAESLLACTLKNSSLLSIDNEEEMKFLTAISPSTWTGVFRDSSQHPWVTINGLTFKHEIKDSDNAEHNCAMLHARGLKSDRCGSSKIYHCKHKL", "T1 sequence (CD94, as listed by the source limits assumed, chain 2 of 2)": "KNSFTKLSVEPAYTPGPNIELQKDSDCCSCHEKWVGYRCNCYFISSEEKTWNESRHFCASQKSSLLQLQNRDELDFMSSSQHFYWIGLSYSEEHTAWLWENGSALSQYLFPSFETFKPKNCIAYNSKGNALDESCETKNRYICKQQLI", "test": "SPR equilibrium response, Langmuir isotherm; antibody on chip, soluble antigen", "method": "In addition, a method using an equilibrium approach was performed. Kd determinations for cynomolgus NKG2A/CD94 were performed by measuring the signal response at equilibrium. […] The equilibrium response signals and corresponding antigen concentrations were then input into a Langmuir binding isotherm model, and the Kd was determined through nonlinear regression. Averages and standard deviations were calculated from 24 replicate chip locations for each molecule."}, "PD-L1 expressed on cells [2]": {"target": "T2, PD-L1 expressed on cells (UniProt Q9NZQ7 19-290, limits assumed)", "T2 sequence (Q9NZQ7 19-290 limits assumed)": "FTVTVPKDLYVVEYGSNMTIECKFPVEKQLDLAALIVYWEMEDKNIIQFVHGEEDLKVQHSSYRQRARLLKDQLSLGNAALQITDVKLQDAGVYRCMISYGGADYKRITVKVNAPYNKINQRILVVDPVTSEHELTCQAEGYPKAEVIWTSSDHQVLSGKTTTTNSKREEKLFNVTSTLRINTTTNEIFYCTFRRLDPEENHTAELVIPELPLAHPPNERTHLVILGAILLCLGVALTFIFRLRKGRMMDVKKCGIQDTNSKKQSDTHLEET", "test": "cell-based or functional assay"}, "[3]": {"target": "T3, NKG2A expressed on KHYG-1 cells (endogenous) (human, UniProt P26715 1-233; Q13241 1-179)", "T3 construct": "whole, on cells; Surface NKG2A copy number of approximately 10-20K; also called KHYG-1 cells expressing endogenous NKG2A; NKG2A-expressing cells", "test": "flow cytometry on KHYG-1 cells expressing endogenous NKG2A", "method": "(§1) Cells were collected by centrifugation at 400×g for 7 minutes and primary antibody was removed. 50 μL per well of AF488 goat anti human IgG Fab (Jackson Immuno Research 109-547-003) at 1:100 dilution was added. Plates were placed at 4° C. for 30 minutes.\n(§2) Cells were collected by centrifugation at 400×g for 7 minutes and secondary antibody was removed. Cells were resuspended in 50 μL per well of PBS and analyzed by flow cytometry. Binding curves were calculated using the mean fluorescence intensity (MFI) of the FITC fluorescence signal on the cells. Bispecific antibody binding was evaluated in KHYG-1 cells expressing endogenous NKG2A and in MC/CAR cells expressing PD-L1. Cells were harvested and assayed for binding as described above."}, "[4]": {"target": "T3, NKG2A expressed on KHYG-1 cells …", "test": "flow cytometry competition; inhibition of HLA-E tetramer binding to KHYG-1 cells", "method": "15 μL per well of binder dilution at 2× concentration was plated in a 96-well plate (Costar 3897). 15 μL per well of cell suspension at 5×10⁶ cells per mL was added. Plates were placed at 4° C. for 30 minutes. Following the incubation, 5 μL per well of Fc block (BD Pharmingen Cat #564220) was added at a final concentration of 500 ng per well. Plates were placed at 4° C. for 10 minutes. […] Plates were placed at 4° C. for 1 hour. Following the incubation, 100 μL per well of PBS was added and plate was centrifuged at 400×g for 7 minutes. Supernatant was removed by flicking the plate. Cells were resuspended in 50 μL per well of PBS and analyzed by flow cytometry (Intellicyt)."}, "Cyno PD-L1": {"target": "Cyno PD-L1 (cyno, UniProt G7PSE7 19-238)", "sequence (G7PSE7 entry or part of it limits assumed)": "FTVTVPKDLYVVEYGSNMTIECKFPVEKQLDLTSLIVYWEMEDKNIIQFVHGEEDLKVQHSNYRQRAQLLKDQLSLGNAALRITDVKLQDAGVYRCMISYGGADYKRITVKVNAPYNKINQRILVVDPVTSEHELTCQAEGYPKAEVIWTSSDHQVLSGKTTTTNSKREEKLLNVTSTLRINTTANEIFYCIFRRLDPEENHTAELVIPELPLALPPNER", "test": "SPR (Carterra), antibody on chip, soluble antigen"}, "[5]": {"target": "T4, Human NKG2A & CD94 with mouse IgG2a Fc tag (AcroBiosystems) (human, UniProt P26715 94-233; Q13241 32-179, limits assumed)", "T4 construct": "Bought soluble antigen of the Carterra assay; also called hNKG2A; not shown: mouse IgG2a Fc tag", "T4 sequence (P26715 94-233 limits assumed, one chain of several)": "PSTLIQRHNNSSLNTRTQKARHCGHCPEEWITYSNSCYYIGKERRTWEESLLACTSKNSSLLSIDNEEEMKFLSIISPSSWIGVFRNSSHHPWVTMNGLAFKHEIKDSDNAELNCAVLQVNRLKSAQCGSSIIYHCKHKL", "test": "SPR (Carterra), antibody on chip, soluble antigen"}, "[6]": {"target": "T5, Human PD-L1 with His tag (AcroBiosystems) (human, UniProt Q9NZQ7 19-238)", "T5 construct": "Bought protein; also called hPD-L1; not shown: His tag", "T5 sequence (Q9NZQ7 19-238 limits assumed)": "as the sequence (G7PSE7 entry or part of it limits assumed) above, with T33A, S34A, N62S, Q68R, R82Q, L173F, A185T, I192T, L215H counted along it", "test": "SPR (Carterra), antibody on chip, soluble antigen"}, "PD-L1 expressed on cells [7]": {"target": "T2, PD-L1 expressed on cells", "test": "flow cytometry on MC/CAR cells expressing PD-L1", "method": "as §1, §2"}, "[8]": {"target": "T6, CD94 (in the NKG2A/CD94 heterodimeric ectodomain complex) (UniProt Q13241 32-179)", "T6 construct": "extracellular domain; Tested only as part of the complex; also called CD94 protein", "T6 sequence (looked up)": "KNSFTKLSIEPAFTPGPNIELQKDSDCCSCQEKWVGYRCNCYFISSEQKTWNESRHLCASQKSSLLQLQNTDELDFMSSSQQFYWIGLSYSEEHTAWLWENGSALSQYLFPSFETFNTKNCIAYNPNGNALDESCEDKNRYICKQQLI", "test": "HDX-MS on the NKG2A/CD94 ectodomain complex", "method": "Two different Quench conditions were used for digestion to improve the coverage. Both Data sets 1 and 2 were collected for 3 different timepoints (2, 10, and 60 mins) in triplicate. D₂O Buffer used was 20 mM Phos, 150 mM NaCl, pH 7.4. The relative fractional uptake greater than 5% was considered significant in the analysis.\nLeap HDX auto sampler and Waters Cyclic IMS MS were the instruments used.\nQuenching: The exchange reaction was quenched by a shift to acidic pH and a temperature drop (two proprietary conditions were used-potential variation in buffer formulation included the use of denaturants or reducing agents)."}, "[9]": {"target": "T3, NKG2A expressed on KHYG-1 cells …", "test": "cell-based or functional assay"}, "PD-L1 expressed on cells [10]": {"target": "T2, PD-L1 expressed on cells", "test": "cell-based or functional assay", "remark": "listed apart in the source"}, "[11]": {"target": "T3, NKG2A expressed on KHYG-1 cells …", "test": "flow cytometry on KHYG-1 cells expressing endogenous NKG2A", "method": "Antibodies that were selected for binding to NKG2A, for example, such as those described in Examples 1 and 2, were evaluated for binding to cells that express NKG2A.\nCells were harvested at 70-90% confluence on the day of the assay. Cells were collected by centrifugation at 200×g for 5 minutes and media was removed. Cells were resuspended at 2×10⁶ cells per mL in cold PBS. […] 50 μL per well of the antibody dilution was plated in a 96 well V-bottom plate (Costar 3897). 50 μL per well of cell suspension was added. Plates were placed at 4° C. for 45-60 minutes.", "remark": "listed apart in the source"}, "[12]": {"target": "T7, biotinylated cyno NKG2A/CD94 heterodimer (extracellular domains) (cynomolgus, UniProt Q9MZJ3 94-233; Q9MZK9 32-179, biotinylated)", "T7 construct": "also called Cynomolgus NKG2A protein; not shown: fusion partner/tags ('similar approach' to the human proteins); fusion partner ('similar approach')", "T7 sequence (Q9MZJ3 other isoform, or with tags, fused parts or gaps, chain 1 of 2)": "as the sequence (NKG2A, as listed by the source limits assumed, chain 1 of 2) above", "T7 sequence (Q9MZK9 32-179, chain 2 of 2)": "as the sequence (CD94, as listed by the source limits assumed, chain 2 of 2) above", "test": "selection summary of Examples 2-5 (Octet binding)"}, "[13]": {"target": "T8, biotinylated human NKG2C/CD94 heterodimer (extracellular domains, Fc fusions) (human, UniProt P26717 94-231; Q13241 32-179, biotinylated)", "T8 construct": "not shown: N-terminal Fc (hole)", "T8 sequence (P26717 other isoform, or with tags, fused parts or gaps)": "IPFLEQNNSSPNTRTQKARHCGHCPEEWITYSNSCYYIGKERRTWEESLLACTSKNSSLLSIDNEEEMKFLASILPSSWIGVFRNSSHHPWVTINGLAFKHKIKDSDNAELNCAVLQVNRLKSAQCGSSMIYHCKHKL", "test": "selection summary of Examples 2-5 (Octet binding)"}}, "data": [{"binder": "B1", "values": [{"measurement": "Kd", "setting": "[1]", "value": 49, "unit": "nM"}, {"measurement": "IC50 of inhibiting PD-1/PD-L1 interaction in PD-L1+MDA-MB-231 cells (PD-1/PD-L1 Signaling Bioassay, chemiluminescent signal)", "setting": "PD-L1 expressed on cells [2]", "value": 0.557, "unit": "nM"}, {"measurement": "EC50", "setting": "[3]", "value": 2.8, "unit": "nM"}, {"measurement": "EC50", "setting": "[4]", "value": 66, "unit": "nM"}, {"measurement": "Kd", "setting": "Cyno PD-L1", "value": 0.11, "unit": "nM"}, {"measurement": "koff", "setting": "Cyno PD-L1", "value": "6e-05", "unit": "s⁻¹"}, {"measurement": "kon", "setting": "Cyno PD-L1", "value": 540000, "unit": "M⁻¹ s⁻¹"}, {"measurement": "Kd", "setting": "[5]", "value": 0.38, "unit": "nM"}, {"measurement": "koff", "setting": "[5]", "value": "9e-05", "unit": "s⁻¹"}, {"measurement": "kon", "setting": "[5]", "value": 240000, "unit": "M⁻¹ s⁻¹"}, {"measurement": "Kd", "setting": "[6]", "value": 0.17, "unit": "nM"}, {"measurement": "koff", "setting": "[6]", "value": "8e-05", "unit": "s⁻¹"}, {"measurement": "kon", "setting": "[6]", "value": 470000, "unit": "M⁻¹ s⁻¹"}, {"measurement": "EC50", "setting": "PD-L1 expressed on cells [7]", "value": 2.17, "unit": "nM"}, {"measurement": "binding result", "setting": "[8]", "value": "no binding"}, {"measurement": "EC50 (read off the curve) of doublet formation between NKG2A+ KHYG-1 and PD-L1+ LCL721.221-PD-L1 cells", "setting": "[9]", "value": "~0.2", "unit": "nM"}, {"measurement": "EC50 (read off the curve) of doublet formation between NKG2A+ KHYG-1 and PD-L1+ LCL721.221-PD-L1 cells", "setting": "PD-L1 expressed on cells [10]", "value": "~0.2", "unit": "nM"}]}, {"binder": "B2", "values": [{"measurement": "EC50", "setting": "[11]", "value": 26.7, "unit": "nM"}, {"measurement": "binding result", "setting": "[12]", "value": "binds"}, {"measurement": "binding result", "setting": "[13]", "value": "no binding"}]}]}
